{
  "source": "patent US20200299408A1",
  "about": "(Genentech, published 2020)",
  "binders": {"B1": {"name": "hu38E4.v1 Fab (Fab, V domains shown)", "VH": "EVQLVQSGAEVKKPGASVKVSCKASGFTFTSYYIHWVRQAPGQGLEWIGWIYPENDNTKYNEKFKDRVTITADTSTSTAYLELSSLRSEDTAVYYCARDGYSRYYFDYWGQGTLVTVSS", "VL": "DIVMTQSPDSLAVSLGERATINCKSSQSLLNSRTRKNYLAWYQQKPGQSPKLLIYWTSTRKSGVPDRFSGSGSGTDFTLTISSLQAEDVAVYYCKQSFILRTFGQGTKVEIK", "notes": "Humanized anti-CD3 Fab; Point mutants of it were expressed as Fabs in HEK293 cells"}},
  "key": {"[1]": {"molecular_target": "T1, single chain human CD3ε-26mer-CD3γ (CD3εγ) (human)", "T1 construct": "also called human CD3εγ", "T1 chain": "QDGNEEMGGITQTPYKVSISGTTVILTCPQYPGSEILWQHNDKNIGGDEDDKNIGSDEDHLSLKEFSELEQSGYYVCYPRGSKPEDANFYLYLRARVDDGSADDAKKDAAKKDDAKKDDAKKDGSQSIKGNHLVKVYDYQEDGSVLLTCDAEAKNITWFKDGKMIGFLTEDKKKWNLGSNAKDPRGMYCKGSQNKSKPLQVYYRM", "test": "monovalent binding affinity, method not stated on the sheet; column huCD3εγ"}, "[2]": {"molecular_target": "T1, single chain human CD3ε-26mer-CD3γ …", "test": "Biacore single cycle kinetics; reference of the ratio column", "from_the_text": "(§1) In addition, position 95 in HVR-H3 was also mutated to serine, threonine, or glutamate. Variants with these single point mutations were expressed as Fabs in HEK293 cells and initially screened with a single cycle kinetics method on a Biacore T100. Selected variants were also scaled up and purified for a conventional multi-cycle kinetics method. For single cycle kinetics, Biacore Series S CM5 sensor chips were immobilized with anti-human Fab antibodies (Human Fab capture kit, GE Healthcare). […] For conventional multi-cycle kinetics, human CD3εγ, cyno CD3εγ, or a 27-mer peptide were immobilized on Biacore Series S CM5 sensor chip using the amine coupling kit from Biacore. Serial 3-fold dilutions of each Fab variant were injected at a flow rate of 30 μl/min. Each sample was analyzed with a protocol of 3-minute association and 3-minute dissociation. In both methods, the Biacore chips were regenerated using 10 mM Glycine (pH 1.7). Binding response was corrected by blank subtraction and a 1:1Languir model of simultaneous fitting of kₒₙ and koff was used for kinetics analysis."}, "[3]": {"molecular_target": "T2, N4A", "T2 construct": "Residue number counts from the N-terminus of CD3ε; also called CD3εγ N4A; CD3 mutant N4A", "T2 single chain CD3ε-26mer linker-CD3γ": "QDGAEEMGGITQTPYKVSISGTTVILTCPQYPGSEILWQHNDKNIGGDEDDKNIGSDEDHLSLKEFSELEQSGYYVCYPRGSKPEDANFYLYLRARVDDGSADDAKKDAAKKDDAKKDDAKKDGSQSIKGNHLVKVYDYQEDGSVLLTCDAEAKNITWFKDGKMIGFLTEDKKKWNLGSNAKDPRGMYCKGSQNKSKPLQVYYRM", "test": "SPR (Biacore 4000): CD3εγ variant captured from the periplasmic fraction on UCHT1v9; analyte a bispecific antibody with one 38E4v1 arm and one irrelevant arm, 0.39-100 nM", "procedure": "(§2) The secreted CD3εγ variants were captured from the crude periplasmic fraction using anti-CD3 antibody UCHT1v9. UCHT1v9 was immobilized on a CM5 serios S chip through amine coupling using the anti-human IgG (Fc) antibody capture kit (BR-1008-39) from GE Healthcare. SPR measurements were performed on the Biacore 4000 instrument, utilizing kinetic evaluation software. In order to measure monovalent binding affinities, anti-CD3 bispecific antibodies were used in which one arm was the anti-CD3 to be tested and the arm recognized an irrelevant antigen. The bispecific anti-CD3 antibodies were passed over the captured supernatant in a concentration series of two-fold dilutions from 0.39 to 100 nM. The resulting kinetics (FIG. 13D) were measured and calculated using Biacore 4000 BIAevaluation software (product code 28-9664-57)."}, "[4]": {"molecular_target": "T3, E6A", "T3 construct": "Residue number counts from the N-terminus of CD3ε; also called CD3εγ E6A; CD3 mutant E6A", "T3 single chain CD3ε-26mer linker-CD3γ": "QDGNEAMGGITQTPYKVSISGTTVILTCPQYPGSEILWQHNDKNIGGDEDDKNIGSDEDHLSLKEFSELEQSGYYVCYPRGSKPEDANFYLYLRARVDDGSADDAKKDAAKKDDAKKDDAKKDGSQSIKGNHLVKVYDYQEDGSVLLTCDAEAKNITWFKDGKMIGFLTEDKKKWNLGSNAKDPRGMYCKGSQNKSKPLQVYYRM", "test": "SPR (Biacore 4000): CD3εγ variant captured from the periplasmic fraction on UCHT1v9; analyte a bispecific antibody with one 38E4v1 arm and one irrelevant arm, 0.39-100 nM", "procedure": "as §2"}, "[5]": {"molecular_target": "T4, D2A", "T4 construct": "Residue number counts from the N-terminus of CD3ε; also called CD3εγ D2A; CD3 mutant D2A", "T4 single chain CD3ε-26mer linker-CD3γ": "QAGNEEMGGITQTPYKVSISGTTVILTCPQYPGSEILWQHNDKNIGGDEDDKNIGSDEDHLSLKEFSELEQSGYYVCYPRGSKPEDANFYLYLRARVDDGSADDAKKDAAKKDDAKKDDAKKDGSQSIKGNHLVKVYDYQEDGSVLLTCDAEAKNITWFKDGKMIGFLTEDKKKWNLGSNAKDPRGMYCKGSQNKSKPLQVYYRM", "test": "SPR (Biacore 4000): CD3εγ variant captured from the periplasmic fraction on UCHT1v9; analyte a bispecific antibody with one 38E4v1 arm and one irrelevant arm, 0.39-100 nM", "procedure": "as §2"}, "[6]": {"molecular_target": "T1, single chain human CD3ε-26mer-CD3γ …", "test": "Biacore, monovalent KD of the CD3 arm; CD3 antigen not named on the sheet (reactivity hu, cyno)"}, "[7]": {"molecular_target": "T1, single chain human CD3ε-26mer-CD3γ …", "test": "SPR (Biacore 4000): CD3εγ (row WT) captured from the periplasmic fraction on UCHT1v9; analyte a bispecific antibody with one 38E4v1 arm and one irrelevant arm, 0.39-100 nM", "procedure": "as §2"}, "[8]": {"molecular_target": "T1, single chain human CD3ε-26mer-CD3γ …", "test": "Biacore full (multi-) cycle kinetics; reference of the ratio column", "from_the_text": "as §1"}, "[9]": {"molecular_target": "T1, single chain human CD3ε-26mer-CD3γ …", "test": "Biacore, human CD3εγ on chip, antibody in flow-through"}, "[10]": {"molecular_target": "T1, single chain human CD3ε-26mer-CD3γ …", "test": "Biacore single cycle kinetics: Fab captured by anti-human Fab, human CD3εγ injected (3-250 nM)", "from_the_text": "as §1"}},
  "data": [
    {"binder": "B1", "values": [
      {"measurement": "Kd", "setting": "[1]", "result": 0.5, "unit": "nM"},
      {"measurement": "ratio (fold)", "setting": "[2]", "result": 1, "unit": "fold"},
      {"measurement": "Kd", "setting": "[3]", "result": 3, "unit": "nM"},
      {"measurement": "Kd", "setting": "[4]", "result": 65, "unit": "nM"},
      {"measurement": "Kd", "setting": "[5]", "result": 1500, "unit": "nM"},
      {"measurement": "Kd", "setting": "[6]", "result": 1.3, "unit": "nM"},
      {"measurement": "Kd", "setting": "[7]", "result": 3, "unit": "nM"},
      {"measurement": "ratio (fold)", "setting": "[8]", "result": 1, "unit": "fold"},
      {"measurement": "Kd", "setting": "[9]", "result": 0.8, "unit": "nM"},
      {"measurement": "koff", "setting": "[9]", "result": 0.0051, "unit": "s⁻¹"},
      {"measurement": "kon", "setting": "[9]", "result": "6.06e+06", "unit": "M⁻¹ s⁻¹"},
      {"measurement": "Kd", "setting": "[10]", "result": 3.4, "unit": "nM"},
      {"measurement": "koff", "setting": "[10]", "result": 0.00108, "unit": "s⁻¹"},
      {"measurement": "kon", "setting": "[10]", "result": 320000, "unit": "M⁻¹ s⁻¹"}
    ]}
  ]
}
